Test results published in PMC7721913 (The Journal of Cell Biology, 2020).

Assays:
[1] = tested on: mitochondria in axons of DRG neurons; test: Mitochondrial transport assay; format: cell-based, rat; settings: vs control; ∼115 mitochondria, 10 axons, three experiments
[2] = tested on: HA-SFPQ; test: Coimmunoprecipitation of HA-SFPQ with KLC1/KIF5A constructs in HEK 293T cells; settings: KIF5A^R280H vs WT KIF5A, n = 7, P = 0.0019
[3] = tested on: bclw and β actin mRNA in DRG neurons; test: Quantitative RT-PCR of mRNA in cell bodies and distal axons; format: cell-based, rat; settings: vs WT control; normalized to gapdh; 3 independent experiments

B1: KIF5A^R280H: KIF5A mutant associated with CMT2 (protein)
chain: MAETNNECSIKVLCRFRPLNQAEILRGDKFIPIFQGDDSVIIGGKPYVFDRVFPPNTTQEQVYHACAMQIVKDVLAGYNGTIFAYGQTSSGKTHTMEGKLHDPQLMGIIPRIARDIFNHIYSMDENLEFHIKVSYFEIYLDKIRDLLDVTKTNLSVHEDKNRVPFVKGCTERFVSSPEEILDVIDEGKSNRHVAVTNMNEHSSRSHSIFLINIKQENVETEQKLSGKLYLVDLAGSEKVSKTGAEGAVLDEAKNINKSLSALGNVISALAEGTKSYVPYHDSKMTRILQDSLGGNCRTTMFICCSPSSYNDAETKSTLMFGQRAKTIKNTASVNLELTAEQWKKKYEKEKEKTKAQKETIAKLEAELSRWRNGENVPETERLAGEDSALGAELCEETPVNDNSSIVVRIAPEERQKYEEEIRRLYKQLDDKDDEINQQSQLIEKLKQQMLDQEELLVSTRGDNEKVQRELSHLQSENDAAKDEVKEVLQALEELAVNYDQKSQEVEEKSQQNQLLVDELSQKVATMLSLESELQRLQEVSGHQRKRIAEVLNGLMRDLSEFSVIVGNGEIKLPVEISGAIEEEFTVARLYISKIKSEVKSVVKRCRQLENLQVECHRKMEVTGRELSSCQLLISQHEAKIRSLTEYMQTVELKKRHLEESYDSLSDELARLQAHETVHEVALKDKEPDTQDAEEVKKALELQMENHREAHHRQLARLRDEINEKQKTIDELKDLNQKLQLELEKLQADYERLKNEENEKSAKLQELTFLYERHEQSKQDLKGLEETVARELQTLHNLRKLFVQDVTTRVKKSAEMEPEDSGGIHSQKQKISFLENNLEQLTKVHKQLVRDNADLRCELPKLEKRLRATAERVKALEGALKEAKEGAMKDKRRYQQEVDRIKEAVRYKSSGKRGHSAQIAKPVRPGHYPASSPTNPYGTRSPECISYTNNLFQNYQNLHLQAAPSSTSDMYFASSGATSVAPLASYQKANMDNGNATDINDNRSDLPCGYEAEDQAKLFPLHQETAAS
modifications: left off: FLAG, N-terminal, kept
- mitochondria transport (in words) [1]: did not alter mitochondria transport
- reduction in binding to SFPQ [2]: ~50%
- axonal bclw mRNA level (in words) [3]: significantly decreased
- axonal β actin mRNA level (in words) [3]: not affected
